Tests used:
CXCL8 = molecular target: T1, CXCL8 (Homo sapiens, UniProt P10145); assay: 1H-15N HSQC NMR titration ([…] sY, […]N-CXCL8); assay type: binding
T1 sequence (P10145 23-99): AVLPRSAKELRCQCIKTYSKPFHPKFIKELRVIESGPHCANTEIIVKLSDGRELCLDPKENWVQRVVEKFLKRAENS

CXCR2 (Homo sapiens) = CXCR2 (Homo sapiens) (UniProt P25025); conditions: cited from earlier work
CXCR1 (Homo sapiens) = CXCR1 (Homo sapiens) (UniProt P25024); conditions: cited from earlier work
Chain of CXCR1 (Homo sapiens) (P25024 whole entry): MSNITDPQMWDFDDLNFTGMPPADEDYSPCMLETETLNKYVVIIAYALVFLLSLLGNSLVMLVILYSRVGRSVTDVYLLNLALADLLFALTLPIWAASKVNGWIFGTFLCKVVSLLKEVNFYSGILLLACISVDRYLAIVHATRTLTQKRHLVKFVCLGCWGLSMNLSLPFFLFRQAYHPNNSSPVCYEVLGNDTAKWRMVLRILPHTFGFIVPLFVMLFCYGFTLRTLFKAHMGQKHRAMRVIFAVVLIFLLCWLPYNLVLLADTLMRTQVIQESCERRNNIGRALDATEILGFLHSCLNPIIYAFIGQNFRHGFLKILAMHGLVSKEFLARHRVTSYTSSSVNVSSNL

Chain of CXCR2 (Homo sapiens) (P25025 whole entry): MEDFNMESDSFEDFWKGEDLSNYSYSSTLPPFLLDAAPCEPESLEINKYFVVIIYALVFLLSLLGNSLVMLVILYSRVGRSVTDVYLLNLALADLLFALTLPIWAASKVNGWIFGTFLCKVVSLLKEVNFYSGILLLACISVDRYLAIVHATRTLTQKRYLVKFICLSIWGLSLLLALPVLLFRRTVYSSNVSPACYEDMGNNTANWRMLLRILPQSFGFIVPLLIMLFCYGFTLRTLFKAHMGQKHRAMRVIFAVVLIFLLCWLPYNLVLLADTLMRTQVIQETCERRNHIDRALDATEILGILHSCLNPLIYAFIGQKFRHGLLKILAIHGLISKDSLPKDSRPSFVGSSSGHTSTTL

N[C@@H](Cc1ccc(OS(=O)(=O)O)cc1)C(=O)O [sY, sulfotyrosine]
Kd (CXCL8): 35200 ± 1950 µM

CXCL5 (from UniProt P42830)
Kd (CXCR2 (Homo sapiens)): 0.011 µM | Kd (CXCR1 (Homo sapiens)): 0.04 µM

— paper PMC5618543, “Differences in Sulfotyrosine Binding amongst CXCR1 and CXCR2 Chemokine Ligands” (International Journal of Molecular Sciences, 2017)
